These results are taken from paper PMC8324831, “A synthetic nanobody targeting RBD protects hamsters from SARS-CoV-2 infection” (Nature Communications, 2021).

B1: LR2 (VHH)
VHH: QVQLVESGGGSVQAGGSLRLSCAASGDINAIGYLGWFRQAPGKEREGVAALDTDEGQTYYADSVKGRFTVSLDNAKNTVYLQMNSLKPEDTALYYCAAAMNGYNEPLYSYDYEYWGQGTQVTVS
B2: LR3 (VHH)
VHH: QVQLVESGGGSVQAGGSLRLSCAASGTINNITYLGWFRQAPGKEREGVAALITTSGYTYYADSVKGRFTVSLDNAKNTVYLQMNSLKPEDTALYYCAAASWGYEWPLVYDDYWYWGQGTQVTVS
B3: LR9 (VHH)
VHH: QVQLVESGGGSVQAGGSLRLSCAASGSISSITYLGWFRQAPGKEREGVAALITARGRTYYADSVKGRFTVSLDNAKNTVYLQMNSLKPEDTALYYCAAANWGYNWPLAYSDYWYWGQGTQVTVS
B4: LR6 (VHH)
VHH: QVQLVESGGGSVQAGGSLRLSCAASGSISSITYLGWFRQAPGKEREGVAALVTTSGNTYYADSVKGRFTVSLDNAKNTVYLQMNSLKPEDTALYYCAAATWGYSWPLEHDEYWYWGQGTQVTVS
B5: MR8 (VHH)
VHH: QVQLVESGGGLVQAGGSLRLSCAASGFPVEWAHMHWYRQAPGKEREWVAAIVSAGHYTVYADSVKGRFTISRDNAKNTVYLQMNSLKPEDTAVYYCNVKDWGSSNQYYDYWGQGTQVTVS
B6: MR14 (VHH)
VHH: QVQLVESGGGLVQAGGSLRLSCAASGFPVMYTHMHWYRQAPGKEREWVAAIVSLGEYTTYADSVKGRFTISRDNAKNTVYLQMNSLKPEDTAVYYCNVKDWGAANKYYDYWGQGTQVTVS
B7: MR12 (VHH)
VHH: QVQLVESGGGLVQAGGSLRLSCAASGFPVEWSHMHWYRQAPGKEREWVAAIVSTGEYTKYADSVKGRFTISRDNAKNTVYLQMNSLKPEDTAVYYCNVKDWYGQAKSYDYWGQGTQVTVS
B8: LR7 (VHH)
VHH: QVQLVESGGGSVQAGGSLRLSCAASGSISSITYLGWFRQAPGKEREGVAALITNWGHTYYADSVKGRFTVSLDNAKNTVYLQMNSLKPEDTALYYCAAAFHGEQYPLYTNKYHYWGQGTQVTVS
B9: LR8 (VHH)
VHH: QVQLVESGGGSVQAGGSLRLSCAASGTIAYIKYLGWFRQAPGKEREGVAALMTRWGETYYADSVKGRFTVSLDNAKNTVYLQMNSLKPEDTALYYCAAANYGANFPLQANTYFYWGQGTQVTVS
B10: LR12 (VHH)
VHH: QVQLVESGGGSVQAGGSLRLSCAASGSIASIKYLGWFRQAPGKEREGVAALMTRWGETYYADSVKGRFTVSLDNAKNTVYLQMNSLKPEDTALYYCAAAECGANSPLHAKDYSYWGQGTQVTVS
B11: LR17 (VHH)
VHH: QVQLVESGGGSVQAGGSLRLSCAASGSIAHIKYLGWFRQAPGKEREGVAALMTRHGQTYYADSVKGRFTVSLDNAKNTVYLQMNSLKPEDTALYYCAAAYYGANFPLFQTGYTYWGQGTQVTVS
B12: MR18 (VHH)
VHH: QVQLVESGGGLVQAGGSLRLSCAASGFPVWEHHMAWYRQAPGKEREWVAAITSKGRYTTYADSVKGRFTISRDNAKNTVYLQMNSLKPEDTAVYYCHVKDAGYFDAQYDYWGQGTQVTVS
B13: MR9 (VHH)
VHH: QVQLVESGGGLVQAGGSLRLSCAASGFPVASTWMEWYRQAPGKEREWVAAITSYGYHTYYADSVKGRFTISRDNAKNTVYLQMNSLKPEDTAVYYCNVKDEGYFSTNYDYWGQGTQVTVS
B14: MR16 (VHH)
VHH: QVQLVESGGGLVQAGGSLRLSCAASGFPVERTWMEWYRQAPGKEREWVAAITSYGYRTYYADSVKGRFTISRDNAKNTVYLQMNSLKPEDTAVYYCNVKDEGSASSAYDYWGQGTQVTVS
B15: MR10 (VHH)
VHH: QVQLVESGGGLVQAGGSLRLSCAASGFPVANTWMEWYRQAPGKEREWVAAITSYGYRTYYADSVKGRFTISRDNAKNTVYLQMNSLKPEDTAVYYCNVKDEGATTKVYDYWGQGTQVTVS
B16: LR11 (VHH)
VHH: QVQLVESGGGSVQAGGSLRLSCAASGSISSITYLGWFRQAPGKEREGVAALVTHSGSTYYADSVKGRFTVSLDNAKNTVYLQMNSLKPEDTALYYCAAAYWGWDWPLNSQDYWYWGQGTQVTVS
B17: LR16 (VHH)
VHH: QVQLVESGGGSVQAGGSLRLSCAASGSISSITYLGWFRQAPGKEREGVAALYTTHGYTYYADSVKGRFTVSLDNAKNTVYLQMNSLKPEDTALYYCAAADWGYNIPLNITDYWYWGQGTQVTVS
B18: LR13 (VHH)
VHH: QVQLVESGGGSVQAGGSLRLSCAASGSISSITYLGWFRQAPGKEREGVAALITHAGRTYYADSVKGRFTVSLDNAKNTVYLQMNSLKPEDTALYYCAAADWGWYWPLVIDHYEYWGQGTQVTVS
B19: LR10 (VHH)
VHH: QVQLVESGGGSVQAGGSLRLSCAASGTISSITYLGWFRQAPGKEREGVAALTTNNGHTYYADSVKGRFTVSLDNAKNTVYLQMNSLKPEDTALYYCAAADWGYDWPLDRYHYWYWGQGTQVTVS
B20: LR14 (VHH)
VHH: QVQLVESGGGSVQAGGSLRLSCAASGSIPGITYLGWFRQAPGKEREGVAALVTNSGHTYYADSVKGRFTVSLDNAKNTVYLQMNSLKPEDTALYYCAAADWGYQWPLDKAEYWYWGQGTQVTVS
B21: LR18 (VHH)
VHH: QVQLVESGGGSVQAGGSLRLSCAASGSISSITYLGWFRQAPGKEREGVAALVTENGHTYYADSVKGRFTVSLDNAKNTVYLQMNSLKPEDTALYYCAAATWGYEWPLYSNDYFYWGQGTQVTVS
B22: LR15 (VHH)
VHH: QVQLVESGGGSVQAGGSLRLSCAASGSISSITYLGWFRQAPGKEREGVAALKTASGQTYYADSVKGRFTVSLDNAKNTVYLQMNSLKPEDTALYYCAAADWGYNWPLIREEYEYWGQGTQVTVS
B23: MR15 (VHH)
VHH: QVQLVESGGGLVQAGGSLRLSCAASGFPVDTWMEWYRQAPGKEREWVAAITSYGYKTYYADSVKGRFTISRDNAKNTVYLQMNSLKPEDTAVYYCNVKDFGYASTYYDYWGQGTQVTVS
B24: MR13 (VHH)
VHH: QVQLVESGGGLVQAGGSLRLSCAASGFPVKNMNMHWYRQAPGKEREWVAAIYSYGVETHYADSVKGRFTISRDNAKNTVYLQMNSLKPEDTAVYYCNVKDWGSYMNWYDYWGQGTQVTVS
B25: MR19 (VHH)
VHH: QVQLVESGGGLVQAGGSLRLSCAASGFPVRNTEHMYWYRQAPGKEREWVAAIFSMGRFTKYADSVKGRFTISRDNAKNTVYLQMNSLKPEDTAVYYCNVKDTGSFSEGYDYWGQGTQVTVS
B26: MR11 (VHH)
VHH: QVQLVESGGGLVQAGGSLRLSCAASGFPVEWTSMVWYRQAPGKEREWVAAIYSAGHHTKYADSVKGRFTISRDNAKNTVYLQMNSLKPEDTAVYYCNVKDYGHDRSNYDYWGQGTQVTVS
B27: LR4 (VHH)
VHH: QVQLVESGGGSVQAGGSLRLSCAASGFIHSIYYLGWFRQAPGKEREGVAALNTQHGTTYYADSVKGRFTVSLDNAKNTVYLQMNSLKPEDTALYYCAAARWGRNYPLNYWQYSYWGQGTQVTVS
B28: sybody LR1 (VHH)
VHH: QVQLVESGGGSVQAGGSLRLSCAASGSISSITYLGWFRQAPGKEREGVAALITDSGRTYYADSVKGRFTVSLDNAKNTVYLQMNSLKPEDTALYYCAAAEWGYEWPLYYASSWYWGQGTQVTVS
B29: sybody MR4 (VHH)
VHH: QVQLVESGGGLVQAGGSLRLSCAASGFPMYAWEMAWYRQAPGKEREWVAAIRSMGVHTHYSDSVKGRFTISRDNAKNTVYLQMNSLKPEDTAVYYCNVKDFGGHQAYYDYWGQGTQVTVS
B30: sybody LR5 (VHH)
VHH: QVQLVESGGGSVQAGGSLRLSCAASGSISSITYLGWFRQAPGKEREGVAALITSNGRTYYADSVKGRFTVSLDNAKNTVYLQMNSLKPEDTALYYCAAATWGYHWPLGAWDYWYWGQGTQVTVS

The target in one experiment is T1, SARS-CoV-2 S-RBD with Avi-tag and deca-His tag (residues 330-531) (SARS-CoV-2, UniProt P0DTC2, biotin on the Avi tag (BirA) where immobilised on streptavidin sensors or used in ELISA and FSEC).
Assay: not given
Conditions: not given
As for B1, the binding result is listed as “binds”. Still for that read-out and setting: the entry for B2 is “binds”; for B3 it is “binds”. Same read-out and setting: the entry for B4 is “binds”; for B5 it is “binds”; for B6 it is “binds”.

Regarding B7, the binding result is reported as “binds”. On to B8, for which the binding result is “binds”. As for B9, the binding result is recorded as “binds”.

For the molecule B10, the binding result is “binds”. Take B11: the binding result is given as “binds”. Same read-out and setting: in the case of B12 it was “binds”; in that of B13, “binds”; in that of B14, “binds”. Consider B15, for which the binding result is “binds”.

On to B16, for which the binding result is recorded as “binds”.

Consider B17, for which the binding result is recorded as “binds”. Consider B18, for which the binding result is listed as “binds”. Take B19: the binding result is recorded as “binds”. On the same count and under the same terms, the entry for B20 is “binds”. As to B21, the binding result is on record as “binds”.

For the molecule B22, the binding result is “binds”. In the case of B23, the binding result is “binds”. The same measure, in the same setting: in the case of B24 it was “binds”. The same measure, in the same setting: the entry for B25 is “binds”. Same read-out and setting: the entry for B26 is “binds”; for B27 it is “binds”.

In another experiment the target is T1, SARS-CoV-2 S-RBD with Avi-tag and …. Briefly: SEC. To be noted: one partner purified.
On to B28, for which the binding result is recorded as “binds”. The same measure, in the same setting: the entry for B29 is “binds”. Same read-out and setting: the entry for B30 is “binds”.
